Results reported in patent publication US20050164339.

Experiments:
LctMutA = target: T1, LctMutA
T1 chain: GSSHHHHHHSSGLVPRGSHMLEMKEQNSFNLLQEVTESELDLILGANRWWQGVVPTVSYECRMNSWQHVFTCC

His6-LctA = target: T2, His6-LctA
T2 chain: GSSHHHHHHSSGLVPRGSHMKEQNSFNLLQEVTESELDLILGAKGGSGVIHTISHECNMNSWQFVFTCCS

[1] = target: T3, His6-LctA modified by LctM
T3 chain: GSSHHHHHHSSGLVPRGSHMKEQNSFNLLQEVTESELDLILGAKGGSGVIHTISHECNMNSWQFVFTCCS

Protein | removal of the leader peptide (LctMutA) | proteolytic cleavage of the leader (MALDI-TOF MS) (His6-LctA) | proteolytic cleavage of the leader (MALDI-TOF MS; sensitivity of indicator strain L. lactis 117) [1] | proteolytic cleavage (MALDI-MS) [1]
GST-Lpd (protein) MKIVLQNNEQDCLLACYSMILGYFGRDVAIHELYSGEMIPPDGLSVSYLKNINMKHQVSMHVYKTDKKNSPNKIFYPKMLPVIIQWNDNHFVVVTKIYRKNVTLIDPAIGKVKYNYNDFMKKFSGYIITLSPNSSFTKKKRISEIIFPLK | the protease domain of LctT can remove the leaser peptide and the His-tag | Both unmodified and modified His-LctA were substrates for GST-Lpd | Both unmodified and modified His-LctA were substrates for GST-Lpd | 
Endoproteinase Lys-C from Lysobacter enzymogenes (protein) GVSGSCNIDVVCPEGNGHRDVIRSVAAYSKQGTMWCTGSLVNNSANDKKMYFLTANHCGMTTAAIASSMVVYWNYQNSTCRAPGSSSSGANGDGSLAQSQTGAVVRATNAASDFTLLELNTAANPAYNLFWAGWDRRDQNFAGATAIHHPNVAEKRISHSTVATEISGYNGATGTSHLHVFWQASGGVTEPGSSGSPIYSPEKRVLGQLHGGPSSCSATGADRSDYYGRVFTSWTGGGTSATRLSDWLDAAGTGAQFIDGLDSTGTPPV |  |  |  | cleavage of the amide bond between Lys25 and Gly26 and removal of the leader sequence and the His6-tag
